Data: patent US20050124549A1 (ADMINISTRATORS OF THE TULANE EDUCATIONAL FUND, published 2005)
Where no end group is shown, it is not given here. [ ]: non-standard residue; d: D form.

Key:
[1] = target: T1, human somatostatin receptor subtype 2 (human, UniProt P30874 1-369); experiment: cell-based or functional assay
T1 construct: whole, on cells; also called SSTR2; SSTR-2

[2] = target: T1, human somatostatin receptor subtype 2; experiment: radioligand displacement, CHO-K1 membranes expressing human SSTR2; competitor [125I]MK-678
Description: (§1) Specificity and selectivity of the analogues were determined by Radioligand Binding Assay on CHO-K1 cells stably transfected with each of the SSTR subtypes, as follows.
(§2) Membranes for in vitro receptor binding assays were obtained by homogenizing the CHO-K1 cells expressing the SSTR's subtypes in ice-cold 50 mM Tris-HCl and centrifuging twice at 39000 g (10 min), with an intermediate resuspension in fresh buffer. The final pellets were resuspended in 10 mM Tris-HCl for assay. […] The final assay volume was 0.3 ml. […] The incubations were terminated by rapid filtration through GF/C filters (pre-soaked in 0.3% polyethylenimine) using a Brandel filtration manifold. Each tube and filter were then washed three times with 5 ml aliquots of ice-cold buffer.

[3] = target: T2, human somatostatin receptor subtype 1 (human, UniProt P30872 1-391); experiment: radioligand displacement, CHO-K1 membranes expressing human SSTR1; competitor [125I-Tyr11]SS-14
T2 construct: whole, on cells; Membrane preparations of transfected CHO-K1 cells; also called SSTR1; SSTR-1
Description: as §1, §2

[4] = target: human somatostatin receptor subtype 4 (human) (UniProt P31391); experiment: radioligand displacement, CHO-K1 membranes expressing human SSTR4; competitor [125I-Tyr11]SS-14
[5] = target: T3, human somatostatin receptor subtype 3 (human, UniProt P32745 1-418); experiment: radioligand displacement, CHO-K1 membranes expressing human SSTR3; competitor [125I-Tyr11]SS-14
T3 construct: whole, on cells; Membrane preparations of transfected CHO-K1 cells; also called SSTR3; SSTR-3
Description: as §1, §2

[6] = target: T4, human somatostatin receptor subtype 5 (human, UniProt P35346 1-364); experiment: radioligand displacement, CHO-K1 membranes expressing human SSTR5; competitor [125I-Tyr11]SS-14
T4 construct: whole, on cells; also called SSTR5; SSTR-5
Description: as §1, §2

T1 sequence (P30874 whole entry): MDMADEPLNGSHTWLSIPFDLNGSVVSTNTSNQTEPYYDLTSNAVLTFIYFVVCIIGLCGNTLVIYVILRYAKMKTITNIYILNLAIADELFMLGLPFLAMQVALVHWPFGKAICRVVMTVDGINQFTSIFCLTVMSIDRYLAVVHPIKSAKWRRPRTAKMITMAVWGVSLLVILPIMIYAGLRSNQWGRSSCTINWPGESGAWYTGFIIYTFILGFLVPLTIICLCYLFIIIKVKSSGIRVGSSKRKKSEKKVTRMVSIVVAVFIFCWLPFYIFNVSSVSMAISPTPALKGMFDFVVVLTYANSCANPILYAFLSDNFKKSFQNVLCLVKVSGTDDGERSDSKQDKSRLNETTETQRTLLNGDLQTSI
T3 sequence (P32745 whole entry): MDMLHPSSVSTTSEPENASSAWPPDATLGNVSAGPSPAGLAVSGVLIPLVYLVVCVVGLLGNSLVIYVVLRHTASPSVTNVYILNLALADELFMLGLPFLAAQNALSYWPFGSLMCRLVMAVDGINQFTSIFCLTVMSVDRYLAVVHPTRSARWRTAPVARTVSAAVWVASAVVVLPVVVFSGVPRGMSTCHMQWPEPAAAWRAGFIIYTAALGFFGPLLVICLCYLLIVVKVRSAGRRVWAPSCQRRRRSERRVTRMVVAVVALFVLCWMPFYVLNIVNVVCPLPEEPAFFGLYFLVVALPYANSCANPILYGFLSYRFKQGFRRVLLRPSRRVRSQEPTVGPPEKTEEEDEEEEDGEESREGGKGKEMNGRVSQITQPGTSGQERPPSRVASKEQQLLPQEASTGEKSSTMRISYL
T2 sequence (P30872 whole entry): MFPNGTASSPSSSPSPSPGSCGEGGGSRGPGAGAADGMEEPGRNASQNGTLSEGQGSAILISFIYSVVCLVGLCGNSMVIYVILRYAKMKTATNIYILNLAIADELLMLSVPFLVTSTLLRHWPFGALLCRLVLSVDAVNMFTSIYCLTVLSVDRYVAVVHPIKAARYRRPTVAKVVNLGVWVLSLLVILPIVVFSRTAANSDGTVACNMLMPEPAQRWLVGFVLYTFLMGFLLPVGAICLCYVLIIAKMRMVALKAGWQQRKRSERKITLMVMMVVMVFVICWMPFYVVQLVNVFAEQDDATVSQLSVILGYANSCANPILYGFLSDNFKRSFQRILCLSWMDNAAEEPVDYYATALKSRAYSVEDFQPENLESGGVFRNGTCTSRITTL
T4 sequence (P35346 whole entry): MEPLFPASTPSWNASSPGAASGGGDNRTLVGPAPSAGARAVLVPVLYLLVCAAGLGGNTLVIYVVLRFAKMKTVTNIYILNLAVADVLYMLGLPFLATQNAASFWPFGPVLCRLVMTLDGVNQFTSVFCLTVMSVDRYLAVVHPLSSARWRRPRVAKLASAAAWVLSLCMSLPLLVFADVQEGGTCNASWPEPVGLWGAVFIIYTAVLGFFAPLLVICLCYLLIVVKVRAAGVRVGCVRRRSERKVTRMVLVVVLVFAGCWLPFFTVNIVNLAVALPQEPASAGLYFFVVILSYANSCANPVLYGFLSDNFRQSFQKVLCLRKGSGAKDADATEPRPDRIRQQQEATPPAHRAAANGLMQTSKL
human somatostatin receptor subtype 4 (human), sequence (P31391 whole entry): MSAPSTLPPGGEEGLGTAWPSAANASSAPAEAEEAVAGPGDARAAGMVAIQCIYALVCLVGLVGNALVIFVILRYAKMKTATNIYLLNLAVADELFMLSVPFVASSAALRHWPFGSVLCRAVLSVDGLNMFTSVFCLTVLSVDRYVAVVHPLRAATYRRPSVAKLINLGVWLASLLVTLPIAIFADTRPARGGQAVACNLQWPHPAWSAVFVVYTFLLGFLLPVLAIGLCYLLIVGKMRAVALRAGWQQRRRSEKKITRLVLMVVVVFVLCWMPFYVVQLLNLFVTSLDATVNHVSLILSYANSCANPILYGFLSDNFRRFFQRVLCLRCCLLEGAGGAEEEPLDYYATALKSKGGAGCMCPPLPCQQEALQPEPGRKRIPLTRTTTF

Molecule	change of [^3H]thy incorporation in TT cells at 10^-9 M [1] [%]	IC50 [2] [µM]	IC50 [3] [µM]	suppression of [^3H]thy incorporation in TT cells, 10^-9 to 10^-7 M [1] [%]	IC50 [4] [µM]	IC50 [5] [µM]	IC50 [6] [µM]
Compound 3: 4-(2-Hydroxyethyl)-1-piperazinylacetyl-D-Phe-cyclo(Cys-Tyr-D-Trp-Lys-Abu-Cys)-Thr-NH2 (peptide)	-17	0.00035	5.21	–	–	–	–
Compound 4: 4-(2-Hydroxyethyl)-1-piperazine-2-ethanesulfonyl-D-Phe-cyclo(Cys-Tyr-D-Trp-Lys-Abu-Cys)-Thr-NH2 (peptide)	-13	–	–	–	–	–	–
Compound 2: cyclo[Tic-Tyr-D-Trp-Lys-Abu-Phe] (peptide)	–	0.00034	1	23 to 58	1	0.412	0.213
Compound 6: Cpa-cyclo(D-Cys-4-Pal-D-Trp-Lys-Thr-Cys)-Nal-NH2 (peptide)	–	0.0064	2.76	–	–	0.044	0.0865
XCYXKVCT (not fully specified; D-Nal at position 1; D-Trp at position 4; cyclo (disulfide) Cys2-Cys7; C-terminal amide, also called SSTR2 preferential agonist) [Compound 1: D-Nal-cyclo[Cys-Tyr-D-Trp-Lys-Val-Cys]-Thr-NH2]	–	0.00075	2.13	–	–	0.098	–
[dF]FW[dW]KTFT-NH2 (also called SSTR5 preferential agonist; SSTR5 selective agonist) [Compound 5: D-Phe-Phe-Trp-D-Trp-Lys-Thr-Phe-Thr-NH2]	–	0.166	1.15	–	–	1	0.0024
